For one protein, Km results are on record in paper PMC12234471, “The apicoplast localized isocitrate dehydrogenase is needed for de novo fatty acid synthesis in the apicoplast of Toxoplasma gondii” (Frontiers in Cellular and Infection Microbiology, 2025).

As usually defined, the Km is the substrate concentration at which the rate is half of its maximum.

Substrate in this series: O=C(O)C[C@H](C(=O)O)[C@@H](O)C(=O)O
Nature of the series: purified protein. The format is biochemical, Toxoplasma gondii. As to conditions: NADP+ co-substrate; Solarbio ICDHm kit.

B1: TgICDH1 (Toxoplasma gondii) (protein)
chain: QRIKVDQPVVEMDGDEMARVIWAMIKEKLILPYLDIPLMYYDLSIQHRDKTDDQVTIDAALAIKRHGVGVKCATITPDEQRVKEFNLKKMWKSPNATIRNTLDGTIFRAPILMKNVPRLVPSWTKPIIIGRHAHADQYKALDFTVDKPGRFVMSFIPADKSNPEVHEVYEFKGGGVALGMYNTDASIKGFAHSCFQYALDQKMPLYLSTKNTVLKKYDGRFKDIFQTIYEKEYKQKFEEAGLWYEHRLIDDMVAQAIKSSGGFVWACKNYDGDVQSDVVAQGYGSLGLMTSVLVCPDGKTIEAEAAHGTVTRHYRQYQKGIKTSTNPIASIYAWTRSLGHRAKLDNNQKLKEFVEALEDACVETVEAGFMTKDLALAIKGDKLTDRDYLCTEDFMDKLARVAERKLLERQIISKA
notes: truncation AA180-594 (leader peptide removed), cloned from RH cDNA in pET-sumo, His-tag resin purified from E. coli BL21
On to B1, for which the Km was 160.7 µM.
